# Molecular target: complement factor C3b (UniProt P01024 23-667; P01024 749-1663)
# Test: SPR; steady-state fit
# Chain of complement factor C3b (P01024 23-667, chain 1 of 2): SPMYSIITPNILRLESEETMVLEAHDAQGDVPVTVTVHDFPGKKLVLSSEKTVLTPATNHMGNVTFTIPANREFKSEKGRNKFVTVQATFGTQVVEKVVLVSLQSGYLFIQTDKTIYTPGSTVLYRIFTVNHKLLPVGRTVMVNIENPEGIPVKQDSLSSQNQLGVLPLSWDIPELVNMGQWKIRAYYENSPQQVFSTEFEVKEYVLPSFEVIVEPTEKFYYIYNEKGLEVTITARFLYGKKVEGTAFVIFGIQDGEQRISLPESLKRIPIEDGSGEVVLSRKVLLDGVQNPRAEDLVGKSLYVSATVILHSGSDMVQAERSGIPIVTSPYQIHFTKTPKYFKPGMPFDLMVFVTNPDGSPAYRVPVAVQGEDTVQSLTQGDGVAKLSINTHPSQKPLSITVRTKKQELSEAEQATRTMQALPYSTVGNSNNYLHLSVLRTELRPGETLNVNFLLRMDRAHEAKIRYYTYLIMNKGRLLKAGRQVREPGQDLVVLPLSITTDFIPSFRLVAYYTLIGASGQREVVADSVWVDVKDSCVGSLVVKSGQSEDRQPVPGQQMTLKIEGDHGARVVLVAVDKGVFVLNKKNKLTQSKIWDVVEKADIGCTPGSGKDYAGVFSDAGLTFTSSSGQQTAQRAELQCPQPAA
# Chain of complement factor C3b (P01024 749-1663, chain 2 of 2): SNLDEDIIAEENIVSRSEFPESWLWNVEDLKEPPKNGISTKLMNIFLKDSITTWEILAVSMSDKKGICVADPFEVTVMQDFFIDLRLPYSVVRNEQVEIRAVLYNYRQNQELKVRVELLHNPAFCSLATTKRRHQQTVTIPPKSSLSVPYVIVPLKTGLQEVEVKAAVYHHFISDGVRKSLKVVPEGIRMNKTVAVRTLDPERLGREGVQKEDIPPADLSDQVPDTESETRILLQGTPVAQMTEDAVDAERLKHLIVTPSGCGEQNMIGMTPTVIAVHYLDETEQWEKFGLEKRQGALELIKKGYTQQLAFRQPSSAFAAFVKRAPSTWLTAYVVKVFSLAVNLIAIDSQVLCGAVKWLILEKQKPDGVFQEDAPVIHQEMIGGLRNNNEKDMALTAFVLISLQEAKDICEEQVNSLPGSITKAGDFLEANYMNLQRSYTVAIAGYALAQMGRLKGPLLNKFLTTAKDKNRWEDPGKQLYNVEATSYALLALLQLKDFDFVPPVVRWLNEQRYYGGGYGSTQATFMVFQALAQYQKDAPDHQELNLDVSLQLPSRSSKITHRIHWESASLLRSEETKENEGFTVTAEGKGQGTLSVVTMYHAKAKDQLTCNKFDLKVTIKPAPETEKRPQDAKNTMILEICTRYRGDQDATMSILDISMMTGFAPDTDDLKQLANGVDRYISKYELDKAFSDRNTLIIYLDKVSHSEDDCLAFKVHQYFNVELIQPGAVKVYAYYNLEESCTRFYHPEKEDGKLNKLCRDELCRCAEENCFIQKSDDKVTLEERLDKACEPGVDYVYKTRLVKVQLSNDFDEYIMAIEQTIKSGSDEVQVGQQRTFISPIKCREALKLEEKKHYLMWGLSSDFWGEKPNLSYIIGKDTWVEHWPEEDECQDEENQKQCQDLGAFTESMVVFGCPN
row,Kd [nM],Binder
1,588,miniFH (designed binder) EDCNELPPRRNTEILTGSWSDQTYPEGTQAIYKCRPGYRSLGNIIMVCRKGEWVALNPLRKCQKRPCGHPGDTPFGTFTLTGGNVFEYGVKAVYTCNEGYQLLGEINYRECDTDGWTNDIPICEVVKCLPVTAPENGKIVSSAMEPDREYHFGQAVRFVCNSGYKIEGDEEMHCSDDGFWSKEKPKCVEISCKSPDVINGSPISQKIIYKENERFQYKCNMGYEYSERGDAVCTESGWRPLPSCEEAGGGGGGGGGGGGGKCGPPPPIDNGDITSFPLSVYAPASSVEYQCQNLYQLEGNKRITCRNGQWSEPPKCLHPCVISREIMENYNIALRWTAKQKLYSRTGESVEFVCKRGYRLSSRSHTLRTTCWDGKLEYPTCAKR
2,300,miniFH-Fc (Fc fusion) EDCNELPPRRNTEILTGSWSDQTYPEGTQAIYKCRPGYRSLGNIIMVCRKGEWVALNPLRKCQKRPCGHPGDTPFGTFTLTGGNVFEYGVKAVYTCNEGYQLLGEINYRECDTDGWTNDIPICEVVKCLPVTAPENGKIVSSAMEPDREYHFGQAVRFVCNSGYKIEGDEEMHCSDDGFWSKEKPKCVEISCKSPDVINGSPISQKIIYKENERFQYKCNMGYEYSERGDAVCTESGWRPLPSCEEAGGGGGGGGGGGGGKCGPPPPIDNGDITSFPLSVYAPASSVEYQCQNLYQLEGNKRITCRNGQWSEPPKCLHPCVISREIMENYNIALRWTAKQKLYSRTGESVEFVCKRGYRLSSRSHTLRTTCWDGKLEYPTCAGPGGGGGPGCPAPELLGGPSVFLFPPKPKDTLMISRTPEVTCVVVDVSHEDPEVKFNWYVDGVEVHNAKTKPREEQYQSTYRVVSVLTVLHQDWLNGKEYKCKVSNKALPAPIEKTISKAKGQPREPQVYTLPPSREEMTKNQVSLTCLVKGFYPSDIAVEWESNGQPENNYKTTPPVLDSDGSFFLYSKLTVDKSRWQQGNVFSCSVMHEALHNHYTQKSLSLSPGGGGGGG
